Assay results: publication PMC12093266, “Synergistic action of two radical SAM enzymes in the biosynthesis of thuricin CD, a two-component sactibiotic†” (Chemical Science, 2025)

Target: T1, TrnC (Bacillus thuringiensis, fluorescently labeled with RED-NHS (in the MST experiments where TrnC is the labelled partner))
T1 construct: TrnC, radical SAM (rSAM/SPASM) sactisynthase encoded in the thuricin CD biosynthetic gene cluster of Bacillus thuringiensis; Likely holds three [4Fe-4S] clusters after reconstitution; also called 6× His-tagged TrnC; wild type TrnC; source: E. coli, purified to near homogeneity and reconstituted under anaerobic conditions; also E. coli lysate, coexpressed with non-tagged TrnD from a …
Experiment: MST; TrnC fluorescently labeled with RED-NHS; series of diluted TrnD (or TrnD(ΔRRE), or an equimolar mixture of TrnD with TrnA or TrnB) mixed with it in capillaries; Monolith instrument; aerobic conditions
Details: both partners purified

Binder	Kd
TrnD (enzyme, fluorescently labeled (in the MST of Fig. 5D only)) MKKYFRLYPYCHLEIGETNSCLYDISSGKMIRVNRENAELLRQCQENVPIESINMDLGILDELIKMNLGTYYANPQFIEPFFETNDTKNRIFGKNNILRQMFILTSTDCNMNCKHCNTDSTVFRKTGCKIWPKSINLNALTQSHWRKILEAFYNLHGEELTFIGGEPFLEFDFIKNIVEIAQEVGISKFSIFTNGSIINDTILNFLMENKIKVYIQIFEVDENKFKAFTNSDIPSIQIIDNIKKLNNHHLDLQLRILITRDNDNNLKKIVNTLQKETNVKDIKIEFLYPKPDNSYYSKKYIPLMYDKKREFSHVNVQKMQFLHQYNPSFFGQITIRRDGKVVPHPMLLTRVIGDLQQDDLFTIINTEEYQEYSTLNKEKISKCSTCAYKYNCMDDRVIENFATGDLYGMEYCNF	2.39 ± 0.46 µM
equimolar mixture of TrnD and TrnB (complex) chain 1: MKKYFRLYPYCHLEIGETNSCLYDISSGKMIRVNRENAELLRQCQENVPIESINMDLGILDELIKMNLGTYYANPQFIEPFFETNDTKNRIFGKNNILRQMFILTSTDCNMNCKHCNTDSTVFRKTGCKIWPKSINLNALTQSHWRKILEAFYNLHGEELTFIGGEPFLEFDFIKNIVEIAQEVGISKFSIFTNGSIINDTILNFLMENKIKVYIQIFEVDENKFKAFTNSDIPSIQIIDNIKKLNNHHLDLQLRILITRDNDNNLKKIVNTLQKETNVKDIKIEFLYPKPDNSYYSKKYIPLMYDKKREFSHVNVQKMQFLHQYNPSFFGQITIRRDGKVVPHPMLLTRVIGDLQQDDLFTIINTEEYQEYSTLNKEKISKCSTCAYKYNCMDDRVIENFATGDLYGMEYCNF chain 2: MEVLNKQNVNIIPESEEVGGWVACVGACGTVCLASGGVGTEFAAASYFL	0.62 ± 0.16 µM
